Tested on: Saccharomyces cerevisiae
Assay: transcriptional activation domain activity (GFP:mCherry ratio, weighted mean of sorted bins, harmonized to initial dataset scale) (arbitrary fluorescence ratio units); higher = stronger transcriptional activation
Conditions: beta-estradiol 1 µM; induction time 4 h
Description: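 53-aa protein tiles (fungal proteins plus yeast TF control tiles) fused C-terminally to a DBD-estrogen-binding domain-mCherry synthetic TF, integrated in S. cerevisiae (URA3 locus) with a GFP reporter. Cells were induced with 1 uM beta-estradiol for 4 h at 30 C, FACS-sorted into 8 bins by GFP:mCherry ratio and barcodes sequenced. Activity is the read-weighted mean bin fluorescence (GFP:mCherry), averaged over barcodes (median 12); tiles under 50 reads were discarded. New active-learning values were harmonized by linear fit onto the scale of the initial (Hummel et al.) dataset. The assay saturates at low and high signal.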

| Sequence | transcriptional activation domain activity |
| --- | --- |
| AADADEDDEDAPKKAPKKPAKRGRKKADDDDEEPEEEAQPAKKKAKGGRKAKK | 47700 |
| AAGASTTAQVSKKRQVLLRVNNRTYTRIDCIGRGGSGKVYRVSAESGKMLALK | 62100 |
| CDTVAHSAGRRERGRKQAGKRNDKERREGEERGKTGKTKRRGVARAGTGASAS | 14800 |
| GEVTQKTRKGSTKHAQRATSGKASEKRRELSRKRKGRRKENARADDGTGEEEE | 17400 |
| MALYLTFRHCPELFYWVKLRRVSRKIHTFISSIFNIFLYVLMLMNGCIIHHYI | 57200 |
| RYEAQGGGYKDTGDNKNKAKKGTPERKTKEDGKEEEEKGDKKEEAKKEEGKKE | 22800 |
| NLRLMIVNFRKYGVLICIRCHDYRRQDVVYGLLLYLLVPCHLFVAYLIELAAA | 47800 |
| KDDEKKDRHRSRRDRGDRDKEDERRRRKRRSRSRSNHRHGHERRRDRSRSREG | 17100 |
| PADDPQPAPATPKRRGRPPKNPKPAEEPKPAEEDPQPVPATTPKKRGRPPKAS | 26100 |
| SPTSAFGTASAPAATSAFGAPATGAAGGGGGGFSAFAGKPAAFGGAAPAPAPA | 46100 |
| MLIFVLIVCISLGLAMSFDSLSLHLQLHRLFCIFCVIFILFAHSFSVGLSCYI | 72000 |
| MNLILRCIWRVTKTIPRLIQTKSIKPDILLYDIHKFFVTVPPREWKRRATEFP | 55900 |
| MGLANGDALITECGGVTFGFGFFLIFVGFWIGLDQVDGVWFLTLVWLLALFFL | 53900 |
| DEEGRRALPRRCVLVMGSEREGVPGPVLAECDGCVEVRQVGVTRSLNVQTAAA | 28700 |
| RGLKNVVVLPAVGERSLASCLAGGDLDGYVIRVLRMLVWFIAFSRDTYDIYIG | 69600 |
| MWGWNGKEIHFSFTEVFLKFLIWLVHSFLRSFLGFSNGFFLTFPLVGFFFSFL | 54800 |
| SFNLLLYGCVLADIGINLSFSCAVSYSHNRKASDVPHILELLFICMLQCCYIG | 60000 |
| AALFLSVQHKLFYLVMSLARFNLYFLSYSFLLLHAKRRWHWYAEIASIMLFWS | 50400 |
| LYMLKIVNWAVLYASLILATLLWCTIFIIYRILKVGGVTAGMRAYHRVIELLV | 83500 |
| RFNLPICGEIKMYRGWTVIDLVHMVCINTACKISNLKHALRKLSISFTNLVKP | 54700 |
| GDDCEVFFLFTFTFTFFFFYFFPRVLFTPFFFYILDLSLFFYCCSCFFFFSPC | 27100 |

| Sequence | transcriptional activation domain activity |
| --- | --- |
| MALEQRCQPTCEAVLLFLLLLFLPLWLLFERFKNLLLLLWPLFFFFFLLLLLW | 35100 |
| LLWSYLLPLFFSLLNELCKRFLPFPLFPLFFYIPCAFYPSPTLSVCSHPLLFI | 61500 |
| LVLLFSLYPLLLPLLPLFPFLLSLFLPLPLNLPKIPAAFFFVFLNIYFLFSIL | 27700 |
| ICISILLIPGDLVTVFSRIGRSEAANIAFSIVLMPSMWSGYFWISLCYLSFWT | 52700 |
| TNNWNPVHWDWNIFRQIVNFNWVLLFYFIFLLFSLFFHFIPVSCISIFYYFFS | 25100 |
| MVVSLLIIRCHSTASSNRWLLLGYGLHFLIRFFYLITMLLITRLNFVLSFFAA | 81000 |
| VQGTTHGRILIQAGKEIWTQELLLPYVYFILTLNPTIHTWERIKKITGYVFRA | 64200 |
| FVIGMSICRAAPGLYIYCWKENIFFLEPSYKSAAVVLSWVWFQVFLLLSQQFF | 59200 |
| MTLLFMWLIVRYILCYVSYYRRYAHRVGTQLPPTYPSFIPKYGTALSYLLAPA | 58700 |
| MINCYAEVALFECCVMFILSPLPPFSLSPQYIFYTLLLYLHYQYFVYRNCALL | 71500 |
| MMDCGRRTSFQAFIFLSLFLVHQVSFCCVYLICFFFFLFFLSFLYSFPFPFFF | 26400 |
| ADKKAKKAAPPPKPESSSSSDSSESDSDAPKAAATVKAAAAAVKKAGKKAVAS | 60900 |
| DSKGFEARRANMGNDVELTGARAIVLVNIWNVQTSCGLSVPLVVQSNSGTECG | 59400 |
| CNICVLLCQIIEVASLVEQRDTIELIKTRYLNRLKLMKPDDVLQTYVSTLLNA | 32400 |
| MLYSFSFTTIGYILAFNPPDGRFFYLMLLGLFVQHLIVYVILFVLILLPICVY | 34300 |
| RGEGDSKSDGKSDGKSEDKAENKGEEAPLVSEKDLVILAEHDLNGRQIKNVIK | 11000 |
| KLSFRLLVLSSSEILVCFPVYPSFVGYDPIFSGFRVKLLIFLLSLWHLLLLFV | 42300 |
| MYQIEALYLILTYKSIPFYHFNYFSIELIIKPTYLFLYLFFSYLFLHWLNLFD | 35100 |
| PSEEAAAAAVEEEEDVTQPEKPKDPEPTPVQPKATPAPAPTPAKPAVPKSWAS | 37300 |
| FDLDDQYLANVVAEDRDASVLVQMSIIVQEGEHSHKSEQEPHISLLVLRRKRL | 40200 |
| QWCIYAMLAYVIGWTISFFFSHLFTCYPITVFIEPYYGNKCVKTVPMFIALLY | 67700 |

| Sequence | transcriptional activation domain activity |
| --- | --- |
| PTRRSFSSAWFLCIRYFSLCSNIVVIVDTFGTFSYNVPMYGLSKKLLMWLACV | 47900 |
| LREKGGSQQQQHQQQQQQQQQQQQQQQQQSLDTLLHHYQSLLSKSDNAIAFDD | 26800 |
| EGGEKGGHGGKEGGEGGEGGEGGEEGGHGGHWGHKKHGHGGGKQKGGWGHHGY | 45300 |
| MSKRAAEGSDSAGSSKKVKQDDSASTVFQKDEEGNLYVDLSSMKRATVSVFRG | 60400 |
| LLLLLDRFIDRNHLLDHIKIGTSDLLNLPGQRSIYISRLCRAICILGYNVNND | 30400 |
| LFFYFFIFLFFYFFILLFYYFIILLFYYLFFFFATVLILILLFFFFFFTYQRT | 47600 |
| QLTAQQLIENAIESGVVDLETLDLPPFLSLDGLPPASSSAAVAASEQIDICPS | 133000 |
| RASEASVGTEGATDIPGDEKKKKRAPRKKPGEEENEAGRGKGRKRKGTNESSA | 36200 |
| PPILVWMRYNAFFILYPLGAGSECLLTFFSLDEAHAWWPHYALLLKIILLIYI | 73800 |
| AVPGEVTEAEANGETDKAEGAAPAEGDAEKPKKKKKKSAKKPKSTGAEGEAAE | 24700 |
| LSLVLWCCGLKKSDLAIYLAWTFLVWPGPSPIFCHLSFLLLLLAFFLLPLLSV | 78100 |
| YIKVLVAVLFVLDTLHVYYLSATFWVVCIRGRLDISGLTVLPWQTPASILMTV | 42300 |
| TAPAPEAAAEPAPAAEAEAPAAETAEAPKEEAKDEKKPEKEKKVSRRLSSRVT | 32400 |
| SSSKKRKAVEVEEEEEEEEEEEEPVEEPEVEKEKEIVAAPVAKKAKVTAAATS | 29300 |
| LPTGSLLPGVGPLRSLIFDLELTRHIVDAYDLYDILFHPRTLPLLCHLTYLHI | 41800 |
| LLTFKLHRLFVVSQKMEDEGVRKLILHLTCCLLPKPNRDSMEAICLFLRWVAS | 83200 |
| TGEKFGIKRKEQQKPEQTAEETVALAKNDTPSFASVFILAYGIHKTLLLPVRL | 41500 |
| MWCTRWYIPLLLLPIPTAPPYFLILFLFSLTLHARPCFYCILLLLTLFLSSCY | 58500 |
| SSFVLCLLQCLDVPSLVELTVRRVNSRLRLLLSCKVLLAGLVRLAIHGDIEMA | 52200 |

— the supplement of paper PMC12636428
